Laboratory results published in CN116574180A.

Target: 生物素标记的抗原多肽 (biotin-labelled human collagen IV α1 chain peptide, synthesised by GenScript) (human)
Assay: BLI (Fortebio Octet); biotinylated peptide on SA biosensor, antibody at 100-1.56 nM

Kd: 376 pM
B1: 8A12D2-2 (antibody, V domains shown)
VH: EVQLQQSGAELVKPGASVKLSCTASGFNIKDHYMHWVKQRTKQGLEWIGRIDPEDGKTNSAPEFQDKATITSDISSNTVYLQLYSLTSEDTAVYYCAYSNFGFAYWGRGTLVTVSA
VL: DIVMTQAAFSNPVTLGTSTSISCRSSRSLLHSNGITYLYWYLQKPGQSPQLLIYQMSSLASGVPDRFSANGSGTDFTLRISRVEAEDVGVYYCAQKLGLPYTFGGGTKLEIK
